B1: [35S]-labelled uS3/Rps3, wt (natural protein)
chain: MVALISKKRKLVADGVFYAELNEFFTRELAEEGYSGVEVRVTPTKTEVIIRATRTQDVLGENGRRINELTLLVQKRFKYAPGTIVLYAERVQDRGLSAVAQAESMKFKLLNGLAIRRAAYGVVRYVMESGAKGCEVVVSGKLRAARAKAMKFADGFLIHSGQPVNDFIDTATRHVLMRQGVLGIKVKIMRDPAKSRTGPKALPDAVTIIEPKEEEPILAPSVKDYRPAEETEAQAEPVEA
modifications: [35S]-labelled

Assays:
Experiment in all cases: pull-down
[1] = target: GST-Rps3, wt (yeast (S. cerevisiae)) (UniProt P05750)
[2] = target: rps3-R116D fused to GST (yeast (S. cerevisiae)) (UniProt P05750)
[3] = target: GST-a/tif32-CTD-box33 (yeast (S. cerevisiae)) (UniProt P38249)
[4] = target: GST-a/tif32-CTD-box32 (yeast (S. cerevisiae)) (UniProt P38249)

Row | Molecule | reduction of binding against wt full-length a/Tif32 [1] | reduction of binding against GST-Rps3 wt [2] | reduction of binding against wt full-length a/Tif32 [2] | reduction of binding against the wt a/Tif32-CTD [3] | reduction of binding against the wt a/Tif32-CTD [4]
1 | [35S]-labelled full-length a/Tif32 with box32 (from UniProt P38249 1-964) (natural protein) | 50% | 35% | 50% |  | 
2 | B1 |  |  |  | 80% | 80%

Reference: publication PMC6868437
